According to article PMC5014518:

Target: T1, 2x-p19-TAT (Carnation Italian Ringspot Virus, UniProt Q66104 1-172)
T1 sequence: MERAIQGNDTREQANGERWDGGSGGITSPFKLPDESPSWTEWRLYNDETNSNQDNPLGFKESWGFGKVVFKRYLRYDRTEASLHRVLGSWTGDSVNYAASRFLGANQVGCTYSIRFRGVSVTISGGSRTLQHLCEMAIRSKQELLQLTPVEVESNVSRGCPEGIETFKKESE
Assay: EMSA

B1: Cy3-CSK siRNA (dsRNA)
RNA 1: CUACCGCAUCAUGUACCAUTT
RNA 2: AUGGUACAUGAUGCGGUAGTT
modifications: 3' dTdT on both strands (DNA residues written TT)
B1 showed a Kd of 0.44 ± 0.16 nM.
